Assay results taken from the supplement of paper PMC9170038.

Tested on: MS2 coat protein
Experiment: apparent KD of MS2 coat protein; higher = weaker reporter binding
Details: Eterna round: R107
Outline: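 The designed RNA switches were transcribed on-chip from Illumina sequencing clusters. In 100 mM Tris-HCl pH 7.5, 80 mM KCl and 4 mM MgCl2, without or with constant ligand, they were titrated with SNAP-549-labelled MS2 coat protein from 0.7 or 1.5 nM to 3 µM in twofold steps. Apparent KD is the per-design median of normalised cluster binding-curve fits.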

[1] = input ligand: theophylline 20 uM
[2] = input ligand: theophylline 2 mM
[3] = input ligand: tryptophan 2.4 mM

Sequence | apparent KD of MS2 coat protein (input ligand: arginine 13.2 mM) [nM] | apparent KD of MS2 coat protein [1] [nM] | apparent KD of MS2 coat protein [2] [nM] | apparent KD of MS2 coat protein [3] [nM] | apparent KD of MS2 coat protein (input ligand: none) [nM]
GCGUUGGCCACGGCCGCCACUCAGGUACCGCGCGUAGUGAACUUACAUGAGGAUCACCCAUGUCUGAGGACCGGGUGGCCGCCAC [theeternabot_sameState_MS2_Trp_B_27] | 31.7 | 70.3 | 46.1 |  | 
UAACAUGAGGAUCACCCAUGUAUAGUCGAUACCAGCUCUGUCUAGAGCCCUUGGCAGCGACACUGGUAUCCAUGGGUGUGGAUAC [(Ms2)-(Theo)-(T)'-(M)'-(M)''] | 20.1 | 98.4 |  | 103 | 
GGAUAGGACACGGCCGCCACUAUCUAGGAUACUAGCAACAUUUGGGUACUUGAGGAUCACCCAAGUAGGACCGGGUGUCCUAUCG | 82.7 | 226 | 253 | 307 | 170
GGUCACCUAUCCUCAUUGGUGACCCUGGAAGGAGCGAGCGAGAGCUCAGGUAGGUCGCCAGAACAUGAGGAUCACCCAUGUAAUA [(A)''-(M)'-(A)'(Arg1)-(Arg2)-(M1)-(M2)_Design12] | 43.4 | 120 | 111 | 70.1 | 94.9
GGUGUUACGUCGGCCGCCACUAUACUACAUGAGGAUCACCCAUGUCAUCCCUUCAAUUGGUAGCCUAGGACCGGGACAGAAUUCG [theeternabot_exclusion_MS2_Trp_B_8] | 33.2 | 55.2 | 43.8 |  | 
AUCUAUAGAGCGGCCGCCACUGAAUACAUGAGGAUCACCCAUGUAAUGUUAAGGUGGUCCUAGCUCAGGACCGGGCUCUAUAGAU [Tryp B Ex t4] | 30 | 60.6 | 53.3 |  | 
ACAUGAGGAUCACCCAUGUUCCUCAUUGAUACCAGUGAAUUUAGACGCCCUUGGCAGCGAGUUUUUUAAGAAGAAGUUUUUUUUU [6.E] | 551 | 793 |  | 992 | 
UUCAAAGGGAACGGUGCUGGUAACAGAGAUACCAGAGUAAUAAUACUCCCUUGGCAGCUCAUAACAUGAGGAUCACCCAUGUAAU [Exclusion Theophylline A GF21] | 12.4 | 17.4 |  | 13.5 | 
UACAUGAGGAUCACCCAUGUAUGAAUGGAUACCAGCGACAAUGGGCGCCCUUGGCAGCUAGUGGAUGAAGGGUGGGUACAAUACU [Exclusion Theophyline A GF4] | 11.4 | 17.7 | 13.1 | 11.4 | 13.4
UAAAACAUGAGGAUCACCCAUGUAUUGAGUCGAGGACCGGUACGGCCGCCACUCGGCAAUAAUAACGACGCAUAGCAUGUAGGAA [theeternabot_sameState_MS2_Trp_A_41] | 12.8 | 19.5 | 14.9 |  | 
AAGACAUGAGGAUCACCCAUGUCGACAAAACGAGGACCGGUACGGCCGCCACUCGAAAGCAAAUGAGCGCAUGCGGCCUGGGUAU [Exclusion Tryp A GF2] | 10.1 | 14.1 | 12 | 12.7 | 11.9
GGAUAGGACAGAAGGAGCGACAUGAGGAUCACCCAUGUCUACUACGUCGAAAGACGCUCAUGUCAGGUAGGUCGCUGUCCUAUCG [#28 Exclusion - Arginine B] | 70.9 | 263 | 458 | 250 | 241
UGUAUGGACUGAAGGAGCGCCUCAAAAUAACUUGAGGAUCACCCAGGUAAGGCGAAAGCCGGGCAGGUAGGUCGCAGUCCAUACU [ArgBX 3] | 31.2 | 43.1 | 72.3 | 49.9 | 37
CCUAUGCAGUCGGCCGCCACUGAUAACGUUAUCGUUACCUCAGAAACAUGAGGAUCACCCAUGUACAGGACCGGGACUGUAUAGG [Ex Tryptophan B 19] | 14.4 | 14.6 | 13.2 |  | 
AGACAUGAGGAUCACCCAUGUAGCAUGGAUACCAGAUGUAGAUUUAUCCCUUGGCAGCUGUGGUAAAGUGAUGCAUUGCUCCUAG [Exclusion - Theophylline A (Freestyle 5)] | 28.5 | 50.1 |  | 34 | 
CCUAUGCAGUCGGCCGCCACUGAACAUGAGGAUCACCCAUGUAACGGAAACGAAGAUCCUGAAAUCAGGACCGGGACUGUAUAGG [Ex Tryptophan B 3] | 92.6 | 221 | 185 | 382 | 154
UUAUUUAACGGAAGGAGCGCGGAAAUUAAAGUGGGUAAACAUGAGGAUCACCCAUGUAAACCGCAGGUAGGUCGCCGAUAUUUAU [#22 Exclusion - Arginine B] | 43 | 67.3 | 82.1 | 71.9 | 84.5
UCAUUUGAGUGAGAUGUAAGGUAUCAUGAUACCAGUAGAUAAUUAUACCCUUGGCAGCAUGACAUGAGGAUCACCCAUGUACAUG [Ad] | 9.28 | 11.1 |  | 12.3 | 
AGCACGGUGAUGGUAGCCGGACGCUAAGUACGAGGACCGGUACGGCCGCCACUCGGAGUCCUACGACAUGAGGAUCACCCAUGUA [Same State Trp A GF12] | 34.3 | 50 | 42.6 | 33.6 | 34.9
AAUAUAAGUGUAAUUAUAUGUAUCUCUGAUACCAGACUCUCAUGUGUCCCUUGGCAGCAGUUACAUGAGGAUCACCCAUGUAUUA [JR_Nu_SSTheophyA_Sub024] | 34.3 | 80.2 |  | 84.5 | 
UCAUGACAUGGGAAUAAAUAAGAAGGCGAAGGAGCGUGAAGAUUCACAGGUAGGUCGCGCAAAAUACAUGAGGAUCACCCAUGUU [JR_Nu_ExcArginiA_Sub032] | 33 | 53.2 | 43.9 | 37.3 | 30.4
AGACUUCGCAUAGGAAAACUAUGUGAAGUCCGAGGACCGGUACGGCCGCCACUCGUCCUCAACAUGAGGAUCACCCAUGUAAUAA [#OpenEnded #CuTurnoff #Tail] | 21.1 | 26 | 23.5 |  | 
CGGACAUGAGGAUCACCCAUGUACACUGAAGGAGCGUCGAGAACGACAGGUAGGUCGCAGGCUAAGGAAGGUGAUGCUCAAGAAG [Exclusion Arginine A GF5] | 37.8 | 47.3 | 41.1 | 23.6 | 36.5
UUUUUUUUUUACAUGAGGAUCACCCAUGUUCGAGGACCGGUACGGCCGCCACUCGUUUUUGUUGUGGUAGGGUUAGGGUUAGGGU [Turkey Lurky] | 19.4 | 92 | 44.8 | 25.5 | 43.5
UUCGCGGCCGCGCUGCACAUGUGUGUGUUACGAGGACCGGUACGGCCGCCACUCGCGAUCGCACAUGAGGAUCACCCAUGUGGGA [Exclusion Tryp A GF17] | 24.1 | 35.8 | 75.6 | 1040 | 25.7
ACAUGAGGAUCACCCAUGUUCCUCAUUGAUACCAGUGAAUUUAGACGCCCUUGGCAGCGAGUUUUUGAAGAAGAAGUUUUUUUUU [6.D] | 235 | 731 |  | 1080 | 
GAGGAAACUCACAUGAGGAUCACCCAUGUACGAGGACCGGUACGGCCGCCACUCGAAACCAUGGGCGGUAGUACAUGGAAACAUG [Design 2 MOD] | 34 | 65.8 | 75.5 |  | 
UAUAUAGAUGGAAGUCAUAUAGAUGCAGAAGGAGCGUAGGAAACUACAGGUAGGUCGCUGAGGUACAUGAGGAUCACCCAUGUAG [SSArg A #18 Slice of Pi] | 20.8 | 34.1 | 25.3 | 24.2 | 27.3
AGACACAUGAGGAUCACCCAUGUACACGAGCGAGGACCGGUACGGCCGCCACUCGUCCAAGCAACUAAUGAGACUCGUAAGAUGG [theeternabot_sameState_MS2_Trp_A_5] | 17.1 | 31.6 | 23.4 |  | 
